Legend:
[1] = target: activated coagulation factor XI (UniProt P03951); assay: inhibition kinetics (residual protease activity on chromogenic substrate); pseudo-first-order, at least a 10:1 molar ratio of AAT variant to protease (5–75 nM), 37°C, discontinuous method; k2 = kobs divided by the initial AAT variant concentration
activated protein C = activated protein C (UniProt P04070); assay: as above
thrombin = thrombin (UniProt P00734); assay: as above
factor XIIa = factor XIIa (UniProt P00748); assay: as above
[2] = target: activated coagulation factor XI (UniProt P03951); assay: stoichiometry of inhibition titration (residual protease activity); varying ratios of AAT variant to protease incubated at ambient temperature for 2 h, residual activity determined at 37°C, line regressed to zero residual activity

Chain of UniProt P03951 (P03951 19-387, chain 1 of 2): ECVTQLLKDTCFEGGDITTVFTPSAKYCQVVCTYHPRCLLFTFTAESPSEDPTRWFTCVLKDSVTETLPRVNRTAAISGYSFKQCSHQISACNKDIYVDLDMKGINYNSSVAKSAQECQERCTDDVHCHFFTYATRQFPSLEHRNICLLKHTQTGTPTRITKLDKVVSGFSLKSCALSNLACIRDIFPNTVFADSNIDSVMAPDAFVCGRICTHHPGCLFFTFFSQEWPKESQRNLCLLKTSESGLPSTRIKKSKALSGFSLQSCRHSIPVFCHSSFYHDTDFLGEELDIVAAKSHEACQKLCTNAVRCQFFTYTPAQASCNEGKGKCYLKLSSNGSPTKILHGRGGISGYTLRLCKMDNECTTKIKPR
Chain of UniProt P03951 (P03951 388-624, chain 2 of 2): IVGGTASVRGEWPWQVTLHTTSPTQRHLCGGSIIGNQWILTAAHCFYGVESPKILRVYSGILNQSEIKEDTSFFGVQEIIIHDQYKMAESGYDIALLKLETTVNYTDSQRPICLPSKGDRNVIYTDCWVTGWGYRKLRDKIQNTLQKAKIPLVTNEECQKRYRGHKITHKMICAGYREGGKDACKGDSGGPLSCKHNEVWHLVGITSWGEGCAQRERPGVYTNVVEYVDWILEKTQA

k2 (second-order rate constant of inhibition) [1]: 140000 M⁻¹ s⁻¹ | k2 (second-order rate constant of inhibition) (activated protein C): 25000 M⁻¹ s⁻¹ | k2 (second-order rate constant of inhibition) (thrombin): 180000 M⁻¹ s⁻¹ | k2 (second-order rate constant of inhibition) (factor XIIa): 23000 M⁻¹ s⁻¹ | SI (stoichiometry of inhibition) [2]: 2.7
Substance: alpha-1 antitrypsin M358R (from UniProt P01009 25-418) (natural protein)
